Assay results: patent publication US20200230168, “NUCLEIC ACID OLIGOMERS AND USES THEREFOR” (Queensland University of Technology, published 2020)

Assays:
[1] = molecular target: T1, hSSB1 (Homo sapiens, UniProt Q9BQ15 Q9BQ15:1-211); assay: SPR; LSA_In3E3 = 1
[2] = molecular target: T2, THOC4 (ALYREF) (UniProt Q86V81 Q86V81:2-257); assay: EMSA; 10 mM Tris pH 8.0, 100 mM NaCl, 1 mM EDTA, 37C
[3] = molecular target: T1, hSSB1; assay: EMSA; details: label: FAM
Description: (§1) FIG. 15 is a graphic representation of hSSB1 EMSAs showing increasing concentrations of hSSB1 protein vs. 5 nM of FAM-labeled LSA_In3E3 sequence in either phosphorothioate (PS) or phosphodiester (PD) chemistry, or negative control sequence (Neg_C) in phosphorothioate chemistry. Graphs represent quantification of at least triplicate experiments, expressed as the fraction of oligomer compound bound to the protein. Purified protein was incubated with 5 nM of labeled oligomer compound for 15 min at 37° C. in a buffer consisting of 10 mM Tris-HCl (pH7.5), 100 mM KCl, 0.01% IGEPAL, 1 mM EDTA and 50 ng/μL BSA.
(§2) FAM-labeled non-targeting PS compound, LSA_In3E3, PD compounds, DNA_In3E3 and RNA_In3E3, and a negative control oligomer compound, NEGC, were incubated separately with purified mouse SSB1 (mSSB1), hSSB1 and human SSB2 (hSSB2) proteins.

[4] = molecular target: T3, mSSB1 (Mus musculus, UniProt Q8R2Y9 Q8R2Y9:1-212); assay: EMSA; details: label: FAM
Description: as §2

[5] = molecular target: T1, hSSB1; assay: EMSA; 10 mM Tris, 1 mM EDTA, 37C; Table 7 gives 9 nM; details: label: FAM
Description: as §1, §2

[6] = molecular target: T2, THOC4 (ALYREF); assay: SPR; LSA_In3E3 = 1
[7] = molecular target: T3, mSSB1; assay: EMSA; 1 mM EDTA, 37C; details: label: FAM
Description: as §2

[8] = molecular target: hSSB2 (Homo sapiens, UniProt Q96AH0 Q96AH0:1-204); assay: EMSA; Tris pH 7.5, 100 mM KCl, 1 mM EDTA, 37C; single EMSA; details: label: FAM
Description: FIG. 16 is a graphic representation of a single EMSA showing increasing concentrations of hSSB2 protein vs. 5 nM of FAM-labeled LSA_In3E3 sequence or negative control sequence (Neg_C) in phosphorothioate chemistry. Graphs represent the fraction of oligo bound to the protein. Purified protein was incubated with 5 nM of labeled oligo for 15 min at 37° C. in a buffer consisting of 10 mM Tris-HCl (pH7.5), 100 mM KCl, 0.01% IGEPAL, 1 mM EDTA and 50 ng/μL BSA.
as §2

[9] = molecular target: T1, hSSB1; assay: EMSA; 10 mM Tris, 1 mM EDTA, 37C; Table 7 gives 3 nM; details: label: FAM
Description: as §1, §2

T1 sequence (Q9BQ15 whole entry, one chain of several): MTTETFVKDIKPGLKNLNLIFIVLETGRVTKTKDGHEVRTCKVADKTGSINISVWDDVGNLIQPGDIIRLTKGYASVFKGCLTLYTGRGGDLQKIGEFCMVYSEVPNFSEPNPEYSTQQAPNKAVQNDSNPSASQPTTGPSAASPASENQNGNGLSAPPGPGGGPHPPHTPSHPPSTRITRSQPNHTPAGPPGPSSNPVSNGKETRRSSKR
T3 sequence (Q8R2Y9 whole entry, one chain of several): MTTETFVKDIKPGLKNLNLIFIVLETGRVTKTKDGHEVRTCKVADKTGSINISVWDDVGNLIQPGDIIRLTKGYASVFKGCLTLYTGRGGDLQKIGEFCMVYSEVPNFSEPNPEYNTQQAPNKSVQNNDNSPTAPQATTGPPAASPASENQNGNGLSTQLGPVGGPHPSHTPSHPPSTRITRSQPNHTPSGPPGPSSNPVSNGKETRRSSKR
Sequence of hSSB2 (Q96AH0 whole entry, one chain of several): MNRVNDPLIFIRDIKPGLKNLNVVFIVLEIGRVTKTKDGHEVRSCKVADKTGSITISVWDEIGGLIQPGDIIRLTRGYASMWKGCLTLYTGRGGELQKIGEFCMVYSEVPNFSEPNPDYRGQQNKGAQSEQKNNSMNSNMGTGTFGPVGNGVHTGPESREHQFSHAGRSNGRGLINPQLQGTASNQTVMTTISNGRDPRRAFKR

Row | Binder | binding signal [1] | Kd [2] | other results
1 | CUCUUGGCUGAGCCCAUCUC (ssRNA, 2'-OMe all, PS all) [cdca3_A_ATG-3] | 1.3 normalized Rmax | 134 nM | –
2 | GAGAACCGACUCGGGUAGAG (ssRNA, 2'-OMe all, PS all) [cdca3_L_ATG-3] | 1.09 normalized Rmax | 58 nM | –
3 | CCAGUGAGCCGGACUUGCCU (ssRNA, phosphodiester, unmodified ribose) [RNA_In3E3] | – | – | Kd [3]: 137 nM
4 | CCAGUGAGCCGGACUUGCCU (ssDNA, deoxyuridine in place of T, phosphodiester) [DNA_In3E3] | – | – | Kd [4]: 13.1 nM; Kd [3]: 13.5 nM
5 | CUCAUUCCUACCGACACCCC (ssRNA, 2'-OMe all, PS all) [Neg_C] | – | 150 nM | Kd [4]: 15.4 nM; Kd [5]: 10 nM
6 | CACGUACCUUAGUGCCUCAC (ssRNA, 2'-OMe all, PS all) [Open_L_1] | 0.8 normalized Rmax | 104 nM | –
7 | AGCCGGAC (ssRNA, 2'-OMe all, PS all [2'-OMe at 1-8 (all); PS at all linkages]) [In3E3 both-end truncation 8 nt] | 0.07 normalized Rmax | – | binding signal [6]: -0.07 normalized Rmax
8 | CCAGUGAGCCGGACUUGCCU (ssRNA, 2'-OMe all, PS all) [LSA_In3E3] | – | 81 nM | Kd [7]: 4.13 nM; binding result [8]: binds; Kd [9]: 3.29 nM
9 | CUGAAGCGUACCCUUUGGUG (ssRNA, 2'-OMe all, PS all) [ASO_E3E4] | 0.75 normalized Rmax | 70 nM | –
10 | CGCGUCACUCGCACUCGCCU (ssRNA, 2'-OMe all, PS all) [LSA_In3E3_CT5] | 0.46 normalized Rmax | 125 nM | –
11 | GUGCAUGGAAUCACGGAGUG (ssRNA, 2'-OMe all, PS all) [Open_A_1] | – | 52 nM | –
